Laboratory results from patent publication US20260167721A1 (ABLEXIS, published 2026).
Residue numbers refer to the chain shown, from its start. Values belong to the binder of their own block, whether it stands above or below them.

Legend:
[1] = target: T1, recombinant human CD3 epsilon/gamma heterodimer (human, UniProt P07766 23-126; P09693 23-116); assay: Octet BLI, mAb on FAB2G sensor, hCD3 E/G 200-50 nM; R^2 0.63
T1 construct: Recombinant protein in solution (200-50 nM) in the Octet assay; also called hCD3 E/G
T1 sequence (P07766 23-126, chain 1 of 2): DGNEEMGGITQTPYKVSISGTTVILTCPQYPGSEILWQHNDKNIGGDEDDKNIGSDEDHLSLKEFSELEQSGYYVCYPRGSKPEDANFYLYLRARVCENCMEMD
T1 sequence (P09693 23-116, chain 2 of 2): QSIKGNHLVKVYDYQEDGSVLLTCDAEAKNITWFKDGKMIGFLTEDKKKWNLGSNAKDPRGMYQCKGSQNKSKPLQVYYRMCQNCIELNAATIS
Description: (§1) Samples were evaluated by flow cytometry analysis against Jurkat and human Pan-T cells (FIG. 1B) as well as by Octet against recombinant human CD3 proteins to evaluate apparent affinities and binding off-rates (Table 6, infra).

[2] = target: T2, recombinant human CD3 epsilon/delta heterodimer (human, UniProt P07766 23-126; P04234 22-105); assay: Octet BLI, mAb on FAB2G sensor, hCD3 E/D 200-50 nM; R^2 0.99
T2 construct: Recombinant protein in solution (200-50 nM) in the Octet assay; also called hCD3 E/D; human CD3E/D
T2 sequence (P07766 23-126, stated change not applied, chain 1 of 2): as the sequence (P07766 23-126, chain 1 of 2) above
T2 sequence (P04234 22-105, stated change not applied, chain 2 of 2): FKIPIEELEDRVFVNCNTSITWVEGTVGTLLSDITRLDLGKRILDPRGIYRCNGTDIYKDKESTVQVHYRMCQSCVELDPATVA

[3] = target: T2, recombinant human CD3 epsilon/delta …; assay: Octet BLI, mAb on FAB2G sensor, hCD3 E/D 200-50 nM; R^2 0.97
Description: as §1

[4] = target: T1, recombinant human CD3 epsilon/gamma …; assay: Octet BLI, mAb on FAB2G sensor, hCD3 E/G 200-50 nM; R^2 0.91
Description: as §1

[5] = target: T3, recombinant CD3 proteins (UniProt P07766 23-126); assay: Octet BLI, recombinant CD3; Full R^2 0.995
T3 construct: elsewhere it uses human CD3 E/D and E/G heterodimers
T3 sequence (P07766 23-126): as the sequence (P07766 23-126, chain 1 of 2) above

[6] = target: T4, human CD3 (TCR/CD3 complex) on the cell surface (human, UniProt P07766 23-207; P09693 23-182; P04234 22-171; P20963 22-164); assay: flow cytometry, Pan-T cells, 10 ug/mL
T4 construct: whole, on cells; also called CD3 on Pan-T cells; CD3 on Jurkat WT cells
T4 sequence (P07766 23-207, chain 1 of 4): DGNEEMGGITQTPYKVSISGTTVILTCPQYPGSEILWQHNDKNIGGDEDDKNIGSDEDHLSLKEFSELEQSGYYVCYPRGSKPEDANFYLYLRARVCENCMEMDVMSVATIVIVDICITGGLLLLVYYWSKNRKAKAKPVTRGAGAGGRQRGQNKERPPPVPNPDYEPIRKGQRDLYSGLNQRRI
T4 sequence (P09693 23-182, chain 2 of 4): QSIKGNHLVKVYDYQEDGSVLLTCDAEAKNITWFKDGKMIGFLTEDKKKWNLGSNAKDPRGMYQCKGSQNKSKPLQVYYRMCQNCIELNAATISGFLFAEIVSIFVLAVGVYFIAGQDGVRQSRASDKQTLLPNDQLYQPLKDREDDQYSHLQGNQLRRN
T4 sequence (P04234 22-171, chain 3 of 4): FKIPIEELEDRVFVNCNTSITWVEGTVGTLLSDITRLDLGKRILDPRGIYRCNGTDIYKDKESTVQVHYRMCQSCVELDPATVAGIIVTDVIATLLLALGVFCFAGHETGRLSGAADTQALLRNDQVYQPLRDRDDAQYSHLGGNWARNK
T4 sequence (P20963 22-164, chain 4 of 4): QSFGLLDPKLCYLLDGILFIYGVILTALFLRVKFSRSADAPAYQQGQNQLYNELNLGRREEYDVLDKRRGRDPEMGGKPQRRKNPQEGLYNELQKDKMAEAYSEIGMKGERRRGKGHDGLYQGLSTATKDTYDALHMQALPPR

[7] = target: T4, human CD3 (TCR/CD3 complex) on the cell …; assay: flow cytometry, gMFI Jurkat WT over Jurkat TCRb KO, 10 ug/mL
[8] = target: T4, human CD3 (TCR/CD3 complex) on the cell …; assay: flow cytometry, Jurkat WT cells, 10 ug/mL
[9] = target: T4, human CD3 (TCR/CD3 complex) on the cell …; assay: flow cytometry, gMFI Jurkat WT over Jurkat TCRb KO, 1 ug/mL
[10] = target: T4, human CD3 (TCR/CD3 complex) on the cell …; assay: flow cytometry, Pan-T cells, 1 ug/mL
[11] = target: T3, recombinant CD3 proteins; assay: Octet BLI, recombinant CD3; Full R^2 0.9943
[12] = target: T4, human CD3 (TCR/CD3 complex) on the cell …; assay: flow cytometry, Jurkat WT cells, 1 ug/mL
[13] = target: T3, recombinant CD3 proteins; assay: Octet BLI, recombinant CD3; Full R^2 0.557*
[14] = target: T3, recombinant CD3 proteins; assay: Octet BLI, recombinant CD3; Full R^2 0.999
[15] = target: T3, recombinant CD3 proteins; assay: Octet BLI, recombinant CD3; Full R^2 0.814*
[16] = target: T3, recombinant CD3 proteins; assay: Octet BLI, recombinant CD3; Full R^2 0.951
[17] = target: T3, recombinant CD3 proteins; assay: Octet BLI, recombinant CD3; Full R^2 0*
[18] = target: T3, recombinant CD3 proteins; assay: Octet BLI, recombinant CD3; Full R^2 0.000*

B3: Control Humanized anti-CD3 (high affinity) scFv-Fc knob/TM (bispecific antibody)
scFv: EVQLVESGGGLVQPGGSLRLSCAASGFTFSTYAMNWVRQAPGKGLEWVGRIRSKYNNYATYYADSVKGRFTISRDDSKNTLYLQMNSLRAEDTAVYYCVRHGNFGDSYVSWFAYWGQGTLVTVSSGKPGSGKPGSGKPGSGKPGSQAVVTQEPSLTVSPGGTVTLTCGSSTGAVTTSNYANWVQQKPGKSPRGLIGGTNKRAPGVPARFSGSLLGGKAALTISGAQPEDEADYYCALWYSNHWVFGGGTKLTVLGGGGSDKTHTCPPCPAPEFEGGPSVFLFPPKPKDTLMISRTPEVTCVVVDVSHEDPEVKFNWYVDGVEVHNAKTKPREEQYNSTYRVVSVLTVLHQDWLNGKEYKCKVSNKALPASIEKTISKAKGQPREPQVYTLPPCREEMTKNQVSLWCLVKGFYPSDIAVEWESNGQPENNYKTTPPVLDSDGSFFLYSKLTVDKSRWQQGNVFSCSVMHEALHNHYTQKSLSLSPGK
heavy: EVQLVQSGAEVKKPGSSVKVSCKASGYTITDSNIHWVRQAPGQSLEWIGYIYPYNGGTDYNQKFKNRATLTVDNPTNTAYMELSSLRSEDTAFYYCVNGNPWLAYWGQGTLVTVSSASTKGPSVFPLAPSSKSTSGGTAALGCLVKDYFPEPVTVSWNSGALTSGVHTFPAVLQSSGLYSLSSVVTVPSSSLGTQTYICNVNHKPSNTKVDKRVEPKSCDKTHTCPPCPAPEFEGGPSVFLFPPKPKDTLMISRTPEVTCVVVDVSHEDPEVKFNWYVDGVEVHNAKTKPREEQYNSTYRVVSVLTVLHQDWLNGKEYKCKVSNKALPASIEKTISKAKGQPREPQVCTLPPSREEMTKNQVSLSCAVKGFYPSDIAVEWESNGQPENNYKTTPPVLDSDGSFFLVSKLTVDKSRWQQGNVFSCSVMHEALHNRFTQKSLSLSPGK
light: DIQLTQSPSTLSASVGDRVTITCRASESLDNYGIRFLTWFQQKPGKAPKLLMYAASNQGSGVPSRFSGSGSGTEFTLTISSLQPDDFATYYCQQTKEVPWSFGQGTKVEVKRTVAAPSVFIFPPSDEQLKSGTASVVCLLNNFYPREAKVQWKVDNALQSGNSQESVTEQDSKDSTYSLSSTLTLSKADYEKHKVYACEVTHQGLSSPVTKSFNRGEC
Kd [5]: 44.9 nM | koff [5]: 0.0111 s⁻¹ | kon [5]: 248000 M⁻¹ s⁻¹ | % Positive [6]: 99.4% | gMFI [6]: 178000 gMFI | Jurkat WT/KO (Fold) [7]: 5.2 fold | gMFI [8]: 21600 gMFI | Jurkat WT/KO (Fold) [9]: 4 fold | % Positive [10]: 99.4% | gMFI [10]: 66400 gMFI | Kd [11]: 39.5 nM | koff [11]: 0.0102 s⁻¹ | kon [11]: 259000 M⁻¹ s⁻¹ | gMFI [12]: 15500 gMFI

B5: CD3 × CD33-BspAb125 (bispecific antibody)
chain 1: not shown
chain 2: B3 heavy
chain 3: B3 light
Kd [14]: 319 nM | koff [14]: 0.00375 s⁻¹ | kon [14]: 11800 M⁻¹ s⁻¹

B6: CD3 × CD33-BspAb121 (bispecific antibody)
chain 1: QTVVTQEPSLTVSPGGTVTLTCASSTGAVTSGYYPNWFQQKPGQAPRALIYSTSNKHSWTPARFSGSLLGGKAALTLSGVQPEDEAEYYCLLYYGGAYVFGCGTKVTVLGGGGSGGGGSGGGGSGGGGSEVQLVESGGGLVKPGGSLRLSCAASGFTFSSYSMNWVRQAPGKCLEWVSSISRSGTYIYYADSVKGRFTISRDNAKNSLYLQMNSLRAEDTAVYYCARERWELLYFDYWGQGTLVTVSSDKTHTCPPCPAPEFEGGPSVFLFPPKPKDTLMISRTPEVTCVVVDVSHEDPEVKFNWYVDGVEVHNAKTKPREEQYNSTYRVVSVLTVLHQDWLNGKEYKCKVSNKALPASIEKTISKAKGQPREPQVYTLPPCREEMTKNQVSLWCLVKGFYPSDIAVEWESNGQPENNYKTTPPVLDSDGSFFLYSKLTVDKSRWQQGNVFSCSVMHEALHNHYTQKSLSLSPGK
chain 2: B3 heavy
chain 3: B3 light
Kd [15]: 1210 nM | koff [15]: 0.0216 s⁻¹ | kon [15]: 17900 M⁻¹ s⁻¹

B7: CD3 × CD33-BspAb123 (bispecific antibody)
chain 1: QTVVTQEPSFSVSPGGTVTLTCGLNSGSVSTSYYPSWYQQTPGQTPRTLIYSTNTRSSGVPDRFSGSILGNKAALTITGAQADDESDYYCVLYMGSGIWVFGCGTKLTVLGGGGSGGGGSGGGGSGGGGSQVQLVQSGAEVKKPGASLKVSCKASGYTFTSYYMHWVRQAPGQCLEWMGIINPSNGNTISAQKFQGRVTMTRDTSTSTVYMEMSSLRSEDTAVYYCVRSWGYYVMDVWGQGTTVTVSSDKTHTCPPCPAPEFEGGPSVFLFPPKPKDTLMISRTPEVTCVVVDVSHEDPEVKFNWYVDGVEVHNAKTKPREEQYNSTYRVVSVLTVLHQDWLNGKEYKCKVSNKALPASIEKTISKAKGQPREPQVYTLPPCREEMTKNQVSLWCLVKGFYPSDIAVEWESNGQPENNYKTTPPVLDSDGSFFLYSKLTVDKSRWQQGNVFSCSVMHEALHNHYTQKSLSLSPGK
chain 2: B3 heavy
chain 3: B3 light
Kd [16]: 12 nM | koff [16]: 0.00103 s⁻¹ | kon [16]: 85500 M⁻¹ s⁻¹

B8: Control Humanized anti-CD3 (low affinity) scFv-Fc knob/TM (bispecific antibody)
scFv: B3 scFv with A113D
heavy: B3 heavy
light: B3 light
Kd [17]: 4.27 nM | koff [17]: 5.33e-05 s⁻¹ | kon [17]: 12500 M⁻¹ s⁻¹ | % Positive [6]: 7.9% | gMFI [6]: 3410 gMFI | Jurkat WT/KO (Fold) [7]: 1 fold | gMFI [8]: 2090 gMFI | Kd [18]: 4.38 nM | koff [18]: 5.48e-05 s⁻¹ | kon [18]: 12500 M⁻¹ s⁻¹ | Jurkat WT/KO (Fold) [9]: 0.9 fold | % Positive [10]: 1.5% | gMFI [10]: 2070 gMFI | gMFI [12]: 1920 gMFI

Further lines, results first:

Kd [1]: < 1 pM | koff [1]: < 1e-07 s⁻¹ | kon [1]: 36200 M⁻¹ s⁻¹ | Kd [2]: 29.5 nM | Response [2]: 0.19 | koff [2]: 0.00153 s⁻¹ | kon [2]: 51900 M⁻¹ s⁻¹
B1: ABL-CD3-16 (antibody, V domains shown)
VH: EVQLVESGGGLVQPGGSLRLSCAASGFTFSRYWMTWVRQAPGKGLEWVANIKEDGSEKYCVDSVKGRFTISRDNAKNSLYLQLNSLRAEDTAVYYCARERRTGYFDYWGQGTLVTVSS
VL: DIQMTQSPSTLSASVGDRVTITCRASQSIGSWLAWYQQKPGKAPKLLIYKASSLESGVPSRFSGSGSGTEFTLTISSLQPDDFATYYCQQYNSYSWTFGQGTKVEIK
notes: Chimeric hybridoma mAb: human V, CH1, upper hinge; mouse middle hinge, CH2, CH3

Kd [3]: 103 nM | Response [3]: 0.22 | koff [3]: 0.0318 s⁻¹ | kon [3]: 309000 M⁻¹ s⁻¹ | Kd [4]: 210 nM | koff [4]: 0.132 s⁻¹ | kon [4]: 627000 M⁻¹ s⁻¹
B2: ABL-CD3-17 (antibody, V domains shown)
VH: EVQLVESGGGLVQPGGSLRLSCAASGFTFSRYSINWVRQAPGKGLEWVSYISSSSSTIYYADSVKGRFTISRDNAKNSLYLQMNSLRDEDTAVYYCARERWELLYFDYWGQGTLVTVSS
VL: NFMLTQPHSVSESPGKTVTISCTRSSGSIASKYVQWYQQRPGSSPTTVIYEDNQRPSGVPDRFSGSIDSSSNSASLTISGLKTEDEADYYCQSYDSNNRVFGGGTKLTVL
notes: as for B1

Kd [13]: < 1 pM | koff [13]: < 1e-07 s⁻¹ | kon [13]: 15400 M⁻¹ s⁻¹
B4: CD3 × CD33-BspAb122 (bispecific antibody)
chain 1: QTVVTQEPSFSVSPGGTVTLTCGLSSGSVSTSYYPSWYQQTPGQAPRTLIYSTNTRSSGVPDRFSGSILGNKAALTITGAQADDESDYYCVLYMGSGIWVFGCGTKLTVLGGGGSGGGGSGGGGSGGGGSEVQLVESGGGLVKPGGSLRLSCAASGFTVSNYSMNWVRQAPGKCLEWVSSISRSSSYIYYADSVKGRFTISRDNAKNSLFLQMNSLRAEDTAVYYCARERWELLYFDYWGQGTLVTVSSDKTHTCPPCPAPEFEGGPSVFLFPPKPKDTLMISRTPEVTCVVVDVSHEDPEVKFNWYVDGVEVHNAKTKPREEQYNSTYRVVSVLTVLHQDWLNGKEYKCKVSNKALPASIEKTISKAKGQPREPQVYTLPPCREEMTKNQVSLWCLVKGFYPSDIAVEWESNGQPENNYKTTPPVLDSDGSFFLYSKLTVDKSRWQQGNVFSCSVMHEALHNHYTQKSLSLSPGK
chain 2: B3 heavy
chain 3: B3 light
